Molecular target: T1, recombinant human C-reactive protein (human), P02741
T1 chain: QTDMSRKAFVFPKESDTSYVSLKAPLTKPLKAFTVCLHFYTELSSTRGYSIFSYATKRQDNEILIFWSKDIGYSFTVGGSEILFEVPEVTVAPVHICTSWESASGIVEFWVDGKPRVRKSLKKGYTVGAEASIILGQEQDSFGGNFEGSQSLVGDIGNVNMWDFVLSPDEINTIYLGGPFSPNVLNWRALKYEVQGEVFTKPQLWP
Assay: cryo-EM structure
Settings: remark: other sources report otherwise

B1: recombinant human C-reactive protein, P02741-1 19-224 (natural protein)
chain: QTDMSRKAFVFPKESDTSYVSLKAPLTKPLKAFTVCLHFYTELSSTRGYSIFSYATKRQDNEILIFWSKDIGYSFTVGGSEILFEVPEVTVAPVHICTSWESASGIVEFWVDGKPRVRKSLKKGYTVGAEASIILGQEQDSFGGNFEGSQSLVGDIGNVNMWDFVLSPDEINTIYLGGPFSPNVLNWRALKYEVQGEVFTKPQLWP
- stoichiometry N: 5

From publication doi:10.1101/2024.10.05.616753
